# Experimental data from publication PMC8670721.
# Assays:
# [1] = tested on: LIN28A (LIN28-TAT recombinant protein, Peprotech); assay: EMSA
# [2] = tested on: LIN28A (LIN28-TAT recombinant protein, Peprotech); assay: filter binding
substance,measurement,setting,value
biotin-labeled pre-let-7a,Kd,[1],0.025 µM
same,Kd,[2],0.01 µM
